According to patent US20140348834A1 (published 2014):
Positions count from the first letter of the chain named.

Assays:
human IL-17A [1] = molecular target: T1, human IL-17A (human, UniProt Q16552 24-155); test: ELISA, captured antibody, serially diluted biotin-IL-17 (Example 1.5.1)
T1 construct: Biotinylated in the ELISA; also called hIL-17; Hu IL-17A
T1 sequence (Q16552 24-155 limits assumed): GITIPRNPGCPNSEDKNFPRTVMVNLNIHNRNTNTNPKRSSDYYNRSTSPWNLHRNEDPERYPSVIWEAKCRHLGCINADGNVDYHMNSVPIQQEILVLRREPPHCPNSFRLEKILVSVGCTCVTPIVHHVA
Description: The following protocol is used to characterize the binding of IL-17 antibodies to human IL-17 by enzyme-linked immunosorbent assay (ELISA). […] 1. Coat ELISA plate with 50 μl per well of Goat anti Mouse IgG-Fc at 2 ug/ml, overnight at 4° C. […] 2. Wash plate 3×PBS/Tween. […] 3. Add 50 μl Mab diluted to 1 μg/ml in PBS/0.1% BSA to appropriate wells. Incubate 1 hr at room temperature (RT). […] 4. Wash plate 3× with PBS/Tween. […] 5. Add 50 μl of serial diluted biotin-IL17 (human IL-17, IL-17A/F, cyno IL-17) to appropriate wells. Incubate 1 hr at room temperature (RT). […] 6. Wash plate 3× with PBS/Tween. […] 7. […] Incubate 1 hr at RT. […] 8. Wash plate 3× with PBS/Tween. […] 9. […] 10. Stop reaction with 50 μl 2N H₂SO₄. […] Read absorbance at 450 nm.

rat IL-17A [2] = molecular target: T2, rat IL-17A (rat, UniProt Q61453 18-150, limits assumed); test: cell-based or functional assay
T2 sequence (looked up): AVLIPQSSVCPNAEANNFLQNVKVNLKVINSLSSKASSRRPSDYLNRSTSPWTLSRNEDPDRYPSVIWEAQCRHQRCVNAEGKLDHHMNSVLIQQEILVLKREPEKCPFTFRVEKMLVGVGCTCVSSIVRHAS

human IL-17A [3] = molecular target: T1, human IL-17A; test: cell-based or functional assay
human IL-17A/F [4] = molecular target: human IL-17A/F (human, UniProt Q16552 24-155; Q96PD4 31-163); test: cell-based or functional assay
Target sequence in this assay (Q16552 24-155 limits assumed, chain 1 of 2): as the sequence (Q16552 24-155 limits assumed) above
Target sequence in this assay (Q96PD4 31-163 limits assumed, chain 2 of 2): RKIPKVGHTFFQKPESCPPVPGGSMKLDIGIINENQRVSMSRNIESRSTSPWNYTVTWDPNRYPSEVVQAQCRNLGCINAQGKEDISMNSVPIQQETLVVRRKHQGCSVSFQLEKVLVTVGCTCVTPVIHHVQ

[5] = molecular target: cynomolgous monkey (cyno) IL-17A (cynomolgus monkey, UniProt A0A2K5TTB0 24-155); test: cell-based or functional assay
mouse IL-17A = molecular target: T3, mouse IL-17A (mouse, UniProt Q62386 26-158, limits assumed); test: SPR Biacore, captured binder
T3 construct: also called MuIL-17A; murine IL17A HIS
T3 sequence (looked up): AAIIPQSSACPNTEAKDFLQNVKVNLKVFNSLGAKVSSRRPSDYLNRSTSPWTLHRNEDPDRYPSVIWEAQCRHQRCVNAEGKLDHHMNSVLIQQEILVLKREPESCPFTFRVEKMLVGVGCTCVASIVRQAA
Description: (§1) The binding of antibodies to purified recombinant human, cyno, rat, mouse, rabbit IL-17 and human IL-17A/F were determined by surface plasmon resonance-based measurements with a Biacore® 3000 instrument (Biacore® AB, Uppsala, Sweden) using running HBS-EP (10 mM HEPES [pH 7.4], 150 mM NaCl, 3 mM EDTA, and 0.005% surfactant P20) at 25° C. […] Approximately 5000 RU of goat anti-mouse or anti-human IgG (Fcγ) fragment specific polyclonal antibody (Pierce Biotechnology Inc, Rockford, Ill.) diluted in 10 mM sodium acetate (pH 4.5) was directly immobilized across a CM5 research grade biosensor chip using a standard amine coupling kit according to manufacturer's instructions and procedures at 25 μg/ml. Unreacted moieties on the biosensor surface were blocked with ethanolamine. Modified carboxymethyl dextran surface in flowcell 2 and 4 was used as a reaction surface. Unmodified carboxymethyl dextran without goat anti-mouse or anti-human IgG in flow cell 1 and 3 was used as the reference surface. For kinetic analysis, rate equations derived from the 1:1 Langmuir binding model were fitted simultaneously to association and dissociation phases of all eight injections (using global fit analysis) with the use of Biaevaluation 4.0.1 software. Purified antibodies were diluted in HEPES-buffered saline for capture across goat anti-mouse or anti-human IgG specific reaction surfaces. Antibodies to be captured as a ligand (25 μg/ml) were injected over reaction matrices at a flow rate of 5 μl/min. The association and dissociation rate constants, kon (unit M-1s-1) and koff (unit s-1) were determined under a continuous flow rate of 25 μl/min. Rate constants were derived by making kinetic binding measurements at ten different antigen concentrations ranging from 10 nM to 200 nM. The equilibrium dissociation constant (unit M) of the reaction between antibodies and recombinant purified IL-17 antigens was then calculated from the kinetic rate constants by the following formula: KD=koff/kon. Binding was recorded as a function of time and kinetic rate constants are calculated. In this assay, on-rates as fast as 10⁶ M⁻¹ s⁻¹ and off-rates as slow as 10⁻⁶ s⁻¹ can be measured.

human IL-17A/F [6] = molecular target: T4, human IL-17A/F (human, UniProt Q16552 24-155; Q96PD4 31-163); test: SPR Biacore, captured binder
T4 construct: Heterodimer of IL-17A and IL-17F, purified recombinant; also called HuIL-17A/F; Hu IL-17A/F
T4 sequence (Q16552 24-155 limits assumed, chain 1 of 2): as the sequence (Q16552 24-155 limits assumed) above
T4 sequence (Q96PD4 31-163 limits assumed, chain 2 of 2): as the sequence (Q96PD4 31-163 limits assumed, chain 2 of 2) above
Description: as §1

cyno IL-17A = cyno IL-17A (cynomolgus monkey, UniProt A0A2K5TTB0 24-155); test: SPR Biacore, captured binder
Description: as §1

rabbit IL-17A = molecular target: T5, rabbit IL-17A (rabbit); test: SPR Biacore, captured binder
T5 construct: also called RabIL-17A
Description: as §1

human IL-17A [7] = molecular target: T6, human IL-17A (human, UniProt Q16552 24-155); test: SPR Biacore, captured binder
T6 construct: Purified recombinant; biotinylated in the ELISA; also called HuIL-17A; Hu IL-17A
T6 sequence (Q16552 24-155 limits assumed): as the sequence (Q16552 24-155 limits assumed) above
Description: as §1

rat IL-17A [8] = molecular target: T7, rat IL-17A (rat, UniProt Q61453 18-150, limits assumed); test: SPR Biacore, captured binder
T7 sequence (looked up): T2 sequence (looked up)
Description: as §1

Sequence of cyno IL-17A (A0A2K5TTB0 entry or part of it): as the sequence (Q16552 24-155 limits assumed) above, with T3A, P8S, N34S, I77V, N78K, P104R counted along it
Sequence of cynomolgous monkey (cyno) IL-17A (A0A2K5TTB0 entry or part of it): as the sequence (Q16552 24-155 limits assumed) above, with T3A, P8S, N34S, I77V, N78K, P104R counted along it

B1: IL17-B6-15 (antibody, V domains shown)
VH: EVQLVQSGAEVKKPGESLKISCKASGGSFSGYGTSWVRQAPGQGLEWMGGITHFFGAVDYAQKFQGRVTITADESTTTAYMELSGLTSDDTAVYYCARDPNEFWNGYYATHDFDYWGQGTTVTVSS
VL: EIVLTQSPDFQSVTPKEKVTITCRASQNIGAELHWYQQKPDQSPKLLIKYASHSISGVPSRFSGSGSGTDFTLTINGLEAEDAGTYYCHQTDRLPYSFGPGTKVDIK
notes: also called pJP245 B6.1 #15VH / pJP246 B6.1 #15Vk
In the case of B1, the EC50 (human IL-17A [1]) is reported as 130 pM, the “Potency (pM), IL-17 and TNF-induced IL-6 secretion from NIH3T3 cells” value (shortened to “Potency (pM) … from NIH3T3 cells”) (rat IL-17A [2]) is reported as 17 pM and the “Potency (pM), IL-17-driven IL-6 production in HS27 cells” value (from here on “Potency (pM) … in HS27 cells”) (human IL-17A [3]) is reported as 24 pM. For the same binder, the “Potency (pM) … in HS27 cells” value (human IL-17A/F [4]) was 162 pM and the “Potency (pM) … in HS27 cells” value [5] was 10 pM.

B2: IL17-B6-11 (antibody, V domains shown)
VH: EVQLVQSGAEVKKPGSSVKVSCKASGGSFLSYGFSWVRQAPGQGLEWMGGITPFFGFADYAQKFQGRVTITADESTTTAYMELSGLTSDDTAVYYCAREPNDFWNGYYTTHHFDYWGQGTTVTVSS
VL: DVVMTQSPDFQSVTPKEKVTITCRASQNIGSALHWYQQKPDQSPKLLIKYASQSISGVPSRFSGSGSGTDFTLTINGLEAEDAGTYYCHQSTSLPHTFGQGTKLDIKR
B2 was tested, and the EC50 (human IL-17A [1]) was 58 pM, the “Potency (pM) … from NIH3T3 cells” value (rat IL-17A [2]) was 6100 pM and the “Potency (pM) … in HS27 cells” value (human IL-17A [3]) was 20 pM. The “Potency (pM) … in HS27 cells” value (human IL-17A/F [4]) was 71 pM and the “Potency (pM) … in HS27 cells” value [5] was 33 pM.

B3: IL17-B6-5 (antibody, V domains shown)
VH: B1 VH with L18V, S30R, G31S, T34I, A57I, V58T, D99E, E102D, A109D, Y115S
VL: B1 VL with A31S, G84A, T91S, R93T, Y96H, S97T, P100Q
notes: also called pJP243 B6.1 #5VH / pJP244 B6.1 #5VK
In the case of B3, the Kd (mouse IL-17A) is reported as 39.5 pM, the koff (mouse IL-17A) is reported as 0.000102 s⁻¹ and the kon (mouse IL-17A) is reported as 2.58e+06 M⁻¹ s⁻¹. For the same binder, the Kd (human IL-17A/F [6]) was 2.22 pM, the koff (human IL-17A/F [6]) was 2.95e-05 s⁻¹ and the kon (human IL-17A/F [6]) was 1.33e+07 M⁻¹ s⁻¹. It also gave a Kd (cyno IL-17A) of 5.39 pM, a koff (cyno IL-17A) of 6.52e-05 s⁻¹ and a kon (cyno IL-17A) of 1.21e+07 M⁻¹ s⁻¹. The Kd (rabbit IL-17A) was 3.17 pM, the koff (rabbit IL-17A) was 2.23e-05 s⁻¹ and the kon (rabbit IL-17A) was 7.03e+06 M⁻¹ s⁻¹. The Kd (human IL-17A [7]) was 3.18 pM, the koff (human IL-17A [7]) was 2.29e-05 s⁻¹ and the kon (human IL-17A [7]) was 7.2e+06 M⁻¹ s⁻¹. For the same binder, the Kd (rat IL-17A [8]) was 9.05 pM, the koff (rat IL-17A [8]) was 5.54e-05 s⁻¹ and the kon (rat IL-17A [8]) was 6.12e+06 M⁻¹ s⁻¹.

B4: IL17-B6-16 (antibody, V domains shown)
VH: B1 VH with K13M, E16S, S30R, T34I, H53P, A57W, V58A, A109D, D112H
VL: B1 VL with N28D, A31S, E32A, I55V, T91S, R93I, Y96H, S97T
notes: also called pJP247 B6.1 #16VH / pJP248 B6.1 #16Vk
With B4 the EC50 (human IL-17A [1]) was 160 pM, the “Potency (pM) … from NIH3T3 cells” value (rat IL-17A [2]) was 167 pM and the “Potency (pM) … in HS27 cells” value (human IL-17A [3]) was 26 pM. For the same binder, the “Potency (pM) … in HS27 cells” value (human IL-17A/F [4]) was 114 pM and the “Potency (pM) … in HS27 cells” value [5] was 13 pM.

B5: IL17-B6-17 (antibody, V domains shown)
VH: B2 VH with L30G, S31G, F34I, S35G, E99D, D102E, T109S, H112D, Y115S
VL: B1 VL with N28D, A31S, S43P, I55T, R93S, S97T
B5 was tested, and the Kd (mouse IL-17A) was 113 pM, the koff (mouse IL-17A) was 0.000169 s⁻¹ and the kon (mouse IL-17A) was 1.49e+06 M⁻¹ s⁻¹. It also gave a Kd (human IL-17A/F [6]) of 1.7 pM, a koff (human IL-17A/F [6]) of 1.23e-05 s⁻¹ and a kon (human IL-17A/F [6]) of 7.23e+06 M⁻¹ s⁻¹. For the same binder, the Kd (cyno IL-17A) was 1.03 pM, the koff (cyno IL-17A) was 1.05e-05 s⁻¹ and the kon (cyno IL-17A) was 1.02e+07 M⁻¹ s⁻¹. It also gave a Kd (rabbit IL-17A) of 3.51 pM, a koff (rabbit IL-17A) of 3.36e-05 s⁻¹ and a kon (rabbit IL-17A) of 9.58e+06 M⁻¹ s⁻¹. For the same binder, the Kd (human IL-17A [7]) was 0.785 pM, the koff (human IL-17A [7]) was 3.1e-06 s⁻¹ and the kon (human IL-17A [7]) was 3.95e+06 M⁻¹ s⁻¹. For the same binder, the Kd (rat IL-17A [8]) was 9.64 pM, the koff (rat IL-17A [8]) was 5.91e-05 s⁻¹ and the kon (rat IL-17A [8]) was 6.13e+06 M⁻¹ s⁻¹.
